Results on three molecules are retold here after US20180282409A1 (Hoffmann-La Roche, published 2018).

In assay [1] the target is T1, extracellular domain of recombinant human CD19 receptor (human, UniProt P15391 20-291).
T1 construct: extracellular domain; also called recombinant human CD19 ECD
T1 sequence (looked up): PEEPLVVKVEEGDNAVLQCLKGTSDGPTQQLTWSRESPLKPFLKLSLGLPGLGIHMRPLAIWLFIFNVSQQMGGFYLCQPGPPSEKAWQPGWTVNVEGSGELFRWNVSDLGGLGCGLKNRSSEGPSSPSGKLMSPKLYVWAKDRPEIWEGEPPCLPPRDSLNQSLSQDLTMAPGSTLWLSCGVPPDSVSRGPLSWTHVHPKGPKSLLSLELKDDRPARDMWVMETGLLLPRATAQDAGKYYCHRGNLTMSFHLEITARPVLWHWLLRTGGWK
The experiment in a line: SPR (BIAcore), half-life of the complex. (In general: In SPR one partner is held on a chip, and binding of the other changes the refractive index at the surface.)

Assay [2] addresses T2, cynomolgus monkey CD19 extracellular domain (ECD) fused to the human PSCA GPI anchor sequence, on transfected … (cynomolgus monkey; human).
T2 construct: Presented on the surface of transiently transfected HEK293 cells; its processing in the cell is not described; also called cynomolgus CD19-ECD; cyCD19 ECD
T2 chain: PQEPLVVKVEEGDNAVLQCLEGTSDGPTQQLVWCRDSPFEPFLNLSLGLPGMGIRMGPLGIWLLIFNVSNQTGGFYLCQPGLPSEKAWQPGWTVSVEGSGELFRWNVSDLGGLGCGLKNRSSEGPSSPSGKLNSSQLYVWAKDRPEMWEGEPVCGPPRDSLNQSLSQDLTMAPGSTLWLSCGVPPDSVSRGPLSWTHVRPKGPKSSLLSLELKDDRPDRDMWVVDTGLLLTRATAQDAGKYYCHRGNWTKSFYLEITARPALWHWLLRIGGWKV
Description: flow cytometry on HEK293 cells presenting cynomolgus CD19 ECD by GPI anchor. The protocol: HEK293 cells were transfected with 1 μg of plasmid DNA per 1.5×10⁶ cells using LipofectAmine 2000 and incubated thereafter for 48 hours at 37° C. […] GWKV; SEQ ID NO: 31) extracellular domain (ECD) fused to the human PSCA GPI anchor sequence ([…] WGPGQL; SEQ ID NO: 32) for extracellular presentation. […] The starting concentration of the antibodies was set to 60 μg/mL (2× final concentration) and then diluted in a 1:3 (v/v) titration series. The primary antibody was incubated on the cells for one hour at room temperature, followed by two wash steps. For secondary detection, anti-huIgG (H+L) antibody conjugated to Alexa488 in a concentration of 30 μg/mL was used.
A general note: In flow cytometry, cells or beads pass a laser one at a time.

B1: humanized anti-human CD19 antibody var.5:S27eP (antibody, V domains shown)
VH: QVQLVQSGAEVKKPGASVKVSCKASGYTFTDYIMHWVRQAPGQGLEWMGYINPYNDGSKYTEKFQGRVTMTSDTSISTAYMELSRLRSDDTAVYYCARGTYYYGSALFDYWGQGTTVTVSS
VL: DIVMTQTPLSLSVTPGQPASISCKSSQSLENPNGNTYLNWYLQKPGQSPQLLIYRVSKRFSGVPDRFSGSGSGTDFTLKISRVEAEDVGVYYCLQLTHVPYTFGQGTKLEIK
notes: also called variant 5 (S27eP); variant 5
With B1, the t1/2 in assay [1] came out at 43.6 min.

B2: humanized anti-human CD19 antibody var.9:S27eP/N28S (antibody, V domains shown)
VH: QVQLVQSGAEVKKPGASVKVSCKASGYTFTDYIMHWVRQAPGQGLEWMGYINPYNDGSKYTEKFQGRVTMTSDTSISTAYMELSRLRSDDTAVYYCARGTYYYGSALFDYWGQGTTVTVSS
VL: DIVMTQTPLSLSVTPGQPASISCKSSQSLENPSGNTYLNWYLQKPGQSPQLLIYRVSKRFSGVPDRFSGSGSGTDFTLKISRVEAEDVGVYYCLQLTHVPYTFGQGTKLEIK
notes: also called variant 9 (S27eP/N28S); variant 9
For B2, the t1/2 in assay [1] was 4 min.

B3: wild-type humanized anti-human CD19 antibody (var.0: wt) (antibody, V domains shown)
VH: EVQLQQSGPELVKPGASVKMACKASGYTFTDYIMHWVKQKTGQGLEWIGYINPYNDGSKYTEKFNGKATLTSDKSSITAYMELSSLTSEDSAVYYCARGTYYYGSALFDYWGQGTTLTVSS
VL: DAVMTQTPLSLPVSLGDQASISCRSSQSLENSNGNTYLNWYLQKPGQSPQLLIYRVSKRFSGVLDRFSGSGSGTDFTLKISRVEAEDLGVYFCLQLTHVPYTFGGGTKLEIK
notes: it was detected with anti-human IgG and captured with anti-human Fab; also called variant 0: wt; humanized wild-type antibody
Molecule B3 showed an EC50 in assay [2] of 0.313 µg/mL.

For orientation: EC50 means the concentration giving half of the maximal effect.
